# Data as given in patent US20050191302.
# Target: recombinant TIMP-1 (Biogenesis, Poole, UK)
protein,measurement,value
recombinant human caspase-3 (Calbiochem) (protein) SGISLDNSYKMDYPEMGLCIIINNKNFHKSTGMTSRSGTDVDAANLRETFRNLKYEVRNKNDLTREEIVELMRDVSKEDHSKRSSFVCVLLSHGEEGIIFGTNGPVDLKKITNFFRGDRCRSLTGKPKLFIIQACRGTELDCGIETDSGVDDDMACHKIPVEADFLYAYSTAPGYYSWRNSKDGSWFIQSLCAMLKQYADKLEFMHILTRVNRKVATEFESFSFDATFHAKKQIPCIVSMLTKELYFYH,caspase-3 activity (colorimetric substrate assay; recombinant caspase-3 incubated with TIMP-1 at 285-2850 ng/ml for 1 hour before the substrate was added),TIMP-1 did not reduce caspase-3 activity directly (data not shown)
